From patent US20040005550A1, “Methods and compositions useful for targeting activated vitronectin receptor alphavbeta3” (The Scripps Research Institute, priority 1998, published 2004) come the findings set out here.

In assay [1] the target is human αvβ3 integrin on cells (human) (UniProt P06756). Nature of the assay: flow cytometry, AP5-treated αvβ3-CHO cells; 1 µM Integrilin against aPB.
Assay [2] has the same target. Nature of the assay: flow cytometry, AP5-treated αvβ3-CHO cells; 1 µM Integrilin against WOW-1 Fab.
The target in assay [3] is purified αIIbβ3 from human platelets (human) (UniProt P08514). Nature of the assay: ELISA on purified integrin, 50 µM MnCl2; half-maximal binding.
For assay [4], the target named is human αvβ3 integrin on cells (human) (UniProt P06756). In words: flow cytometry binding isotherms, JY cells.
Assay [5] shares this target. Nature of the assay: flow cytometry binding isotherm, αvβ3-CHO cells, no treatment.
In assay [6] the target is purified αvβ3 receptors from human placenta (human) (UniProt P06756). Nature of the assay: ELISA on purified integrin, 50 µM MnCl2; half-maximal binding.
Assay [7] addresses human αvβ3 integrin on cells (human) (UniProt P06756). In words: flow cytometry binding isotherm, unstimulated JY cells, one-site fit.
The target is the same in assay [8]. Nature of the assay: flow cytometry, JY cells, 100 nM phorbol myristate acetate for 15 min.
Assay [9] shares this target. In words: flow cytometry binding isotherm, αvβ3-CHO cells, activating antibody AP5.
Assay [10] shares this target. Nature of the assay: flow cytometry binding isotherm, JY cells stimulated with phorbol myristate acetate, one-site fit.
Assay [11] has the same target. In words: unstimulated B-lymphoblastoid cells; summary in the description, differs from the 2,600 nM of Example 8.

human αvβ3 integrin on cells (human), sequence (P06756 31-1048, chain 1 of 2): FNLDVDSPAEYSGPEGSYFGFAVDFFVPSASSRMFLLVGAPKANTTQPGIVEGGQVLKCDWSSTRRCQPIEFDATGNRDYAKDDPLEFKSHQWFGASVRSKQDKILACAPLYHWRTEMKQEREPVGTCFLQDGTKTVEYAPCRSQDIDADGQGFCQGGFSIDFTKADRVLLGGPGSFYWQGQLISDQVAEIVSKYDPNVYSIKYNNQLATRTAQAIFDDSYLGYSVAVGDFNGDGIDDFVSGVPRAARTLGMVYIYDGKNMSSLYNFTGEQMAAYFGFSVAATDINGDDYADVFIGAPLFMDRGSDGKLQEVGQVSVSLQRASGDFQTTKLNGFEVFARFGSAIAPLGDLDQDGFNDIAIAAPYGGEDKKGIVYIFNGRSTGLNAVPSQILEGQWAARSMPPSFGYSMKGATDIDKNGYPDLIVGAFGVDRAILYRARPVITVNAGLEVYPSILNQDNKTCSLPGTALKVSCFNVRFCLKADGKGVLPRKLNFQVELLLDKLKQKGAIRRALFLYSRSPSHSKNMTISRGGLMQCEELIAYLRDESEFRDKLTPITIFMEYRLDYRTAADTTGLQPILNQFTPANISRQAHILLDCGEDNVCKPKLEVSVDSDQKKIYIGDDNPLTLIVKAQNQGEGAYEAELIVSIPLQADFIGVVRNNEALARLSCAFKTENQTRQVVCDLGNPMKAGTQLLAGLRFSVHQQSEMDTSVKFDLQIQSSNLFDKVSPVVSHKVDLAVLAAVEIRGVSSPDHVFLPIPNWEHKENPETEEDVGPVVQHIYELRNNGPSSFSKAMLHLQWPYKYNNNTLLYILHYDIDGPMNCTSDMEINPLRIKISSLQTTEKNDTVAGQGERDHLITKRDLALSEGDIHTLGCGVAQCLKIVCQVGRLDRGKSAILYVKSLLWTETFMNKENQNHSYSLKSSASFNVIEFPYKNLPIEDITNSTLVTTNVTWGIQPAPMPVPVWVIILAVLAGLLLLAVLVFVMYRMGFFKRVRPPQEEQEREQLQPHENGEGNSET
human αvβ3 integrin on cells (human), sequence (P05106 27-788, chain 2 of 2, further chain): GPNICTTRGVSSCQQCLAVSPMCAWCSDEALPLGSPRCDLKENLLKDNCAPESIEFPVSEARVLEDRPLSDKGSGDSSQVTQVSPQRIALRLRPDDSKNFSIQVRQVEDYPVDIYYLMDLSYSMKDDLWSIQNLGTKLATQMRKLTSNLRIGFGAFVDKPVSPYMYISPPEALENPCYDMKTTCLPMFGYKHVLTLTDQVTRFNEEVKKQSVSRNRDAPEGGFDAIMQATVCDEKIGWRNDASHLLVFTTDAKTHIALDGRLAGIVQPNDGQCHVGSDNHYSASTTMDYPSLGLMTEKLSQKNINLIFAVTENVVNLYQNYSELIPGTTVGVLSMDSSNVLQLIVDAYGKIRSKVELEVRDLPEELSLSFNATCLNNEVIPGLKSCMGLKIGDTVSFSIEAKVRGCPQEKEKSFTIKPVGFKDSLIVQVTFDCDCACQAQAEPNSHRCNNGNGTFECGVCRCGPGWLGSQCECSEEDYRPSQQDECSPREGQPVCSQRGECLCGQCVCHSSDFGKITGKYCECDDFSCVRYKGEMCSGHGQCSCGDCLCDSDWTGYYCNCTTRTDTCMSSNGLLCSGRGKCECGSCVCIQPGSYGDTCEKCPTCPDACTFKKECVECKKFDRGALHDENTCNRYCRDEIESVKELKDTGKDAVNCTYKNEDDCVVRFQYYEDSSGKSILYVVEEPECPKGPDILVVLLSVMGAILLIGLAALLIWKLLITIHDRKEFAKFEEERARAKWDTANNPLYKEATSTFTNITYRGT
purified αvβ3 receptors from human placenta (human), sequence (P06756 31-1048 limits assumed, chain 1 of 2): as the sequence (P06756 31-1048, chain 1 of 2) above
purified αvβ3 receptors from human placenta (human), sequence (P05106 27-788 limits assumed, chain 2 of 2, further chain): as the sequence (P05106 27-788, chain 2 of 2, further chain) above

Turning to Integrilin (peptide), the percent inhibition of aPB binding in assay [1] is < 20%. Further, the percent inhibition of WOW-1 Fab binding in assay [2] is < 20%.

As for PAC1 Fab, in assay [3], the EC50 stood at 50 nM.

For WOW-1 Fab, the fold increase in binding affinity with phorbol myristate acetate against unstimulated cells in [4] was > 30 fold. The Bmax was determined as 62 units in assay [5] and 65 units in [9]. Further, the Kd in assay [5] was 514 nM; in assay [7] it was 2600 nM; in [9], 119 nM; in assay [10] it was 80 nM; in assay [11], 2400 nM. In assay [6], this substance gave an EC50 of 40 nM. This substance yielded a maximal binding (arbitrary fluorescence units) in assay [7] of 24.8. Moreover, the fold increase in specific binding with phorbol myristate acetate against no agonist in assay [8] turned out to be 2.4 fold. This substance returned a maximal binding in [10] of 23.5 units.
